The source of these data is patent US20220162320A1 (published 2022).

In experiment [1] the target is T1, CD3 (reagent of the affinity experiments of Example 18) (UniProt P07766 23-126).
T1 chain: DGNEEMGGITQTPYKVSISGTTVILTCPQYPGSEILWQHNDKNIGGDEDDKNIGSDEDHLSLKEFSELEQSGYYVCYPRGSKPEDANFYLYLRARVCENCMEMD
The experiment is described as follows: BLI; aCD3 IgG load. (In general: In BLI a coated tip is dipped into the sample, and binding shifts an interference pattern.)

The target in experiment [2] is T1, CD3 (reagent of the affinity …). The experiment is described as follows: BLI; aCD3 IgG analyte.
For experiment [3] the target is unchanged. As to the kind of experiment: BLI; aCD3 IgG analyte, apparent KD (bivalent), avid.
For experiment [4] the target is unchanged. The experiment is described as follows: BLI.
For experiment [5], the target named is T2, HLA-PEPTIDE target G2: HLA-A*01:01_…, recombinant soluble complex (human, enzymatically biotinylated (BirA)). As to the kind of experiment: BLI.
The target in experiment [6] is T2, HLA-PEPTIDE target G2: HLA-A*01:01_…, …. As to the kind of experiment: BLI; apparent KD (bivalent), avid.

B1: antibody designated αCD3, in IgG format (antibody, V domains shown)
VH: EVQLVESGGGLVQPGGSLRLSCAASGFTFSTYAMNWVRQAPGKGLEWVGRIRSKYNNYATYYADSVKGRFTISRDDSKNTLYLQMNSLRAEDTAVYYCVRHGNFGDSYVSWFAYWGQGTLVTVSS
VL: QAVVTQEPSLTVSPGGTVTLTCGSSTGAVTTSNYANWVQQKPGKSPRGLIGGTNKRAPGVPARFSGSLLGGKAALTISGAQPEDEADYYCALWYSNHWVFGGGTKLTVLR
As for B1, the Kd in experiment [1] was 2.92 nM; in experiment [2] it was 144 nM; in experiment [3] it was under 0.001 nM.

B2: 4-G2(1H11)-hOKT3 (bispecific antibody)
chain: not shown
heavy: QVQLVQSGAEVKKPGASVKVSCKASGYTFTNYYMHWVRQAPGQGLEWMGMINPSGGGTSYAQKFQGRVTMTRDTSTSTVYMELSSLRSEDTAVYYCARGNPWELRLDYWGQGTLVTVSSGGGGSGGGGSGGGGSGGGGSDIQMTQSPSSLSASVGDRVTITCQASQDISNYLNWYQQKPGKAPKLLIYAASSLQSGVPSRFSGSGSGTDFTLTISSLQPEDFATYYCQQYYSYPFTFGPGTKVDIKGGGGSGGGGSQVQLVQSGAEVKKPGASVKVSCKASGYTFTRYTMHWVRQAPGQGLEWMGYINPSRGYTNYNQKFKDRVTLTTDKSSSTAYMELSSLRSEDTAVYYCARYYDDHYSLDYWGQGTLVTVSSASTKGPSVFPLAPSSKSTSGGTAALGCLVKDYFPEPVTVSWNSGALTSGVHTFPAVLQSSGLYSLSSVVTVPSSSLGTQTYICNVNHKPSNTKVDKRVEPKSCDKTHTCPPCPAPELLGGPSVFLFPPKPKDTLMISRTPEVTCVVVDVSHEDPEVKFNWYVDGVEVHNAKTKPREEQYQSTYRVVSVLTVLHQDWLNGKEYKCKVSNKALPAPIEKTISKAKGQPREPQVCTLPPSREEMTKNQVSLSCAVKGFYPSDIAVEWESNGQPENNYKTTPPVLDSDGSFFLVSKLTVDKSRWQQGNVFSCSVMHEALHNRFTQKSLSLSPGK
light: DIQMTQSPSSLSASVGDRVTITCSASSSVSYMNWYQQKPGKAPKRLIYDTSKLASGVPSRFSGSGSGTDFTLTISSLQPEDFATYYCQQWSSNPFTFGQGTKLEIKRTVAAPSVFIFPPSDEQLKSGTASVVCLLNNFYPREAKVQWKVDNALQSGNSQESVTEQDSKDSTYSLSSTLTLSKADYEKHKVYACEVTHQGLSSPVTKSFNRGEC
For the molecule B2, the Kd in experiment [4] was determined as 26.1 nM; in experiment [5] it was 5.34 nM; in experiment [6] it was 2.72 nM.
